The target in one data set is T1, mammalian alpha-amylase (Homo sapiens, UniProt P04746).
T1 sequence (P04746 16-511): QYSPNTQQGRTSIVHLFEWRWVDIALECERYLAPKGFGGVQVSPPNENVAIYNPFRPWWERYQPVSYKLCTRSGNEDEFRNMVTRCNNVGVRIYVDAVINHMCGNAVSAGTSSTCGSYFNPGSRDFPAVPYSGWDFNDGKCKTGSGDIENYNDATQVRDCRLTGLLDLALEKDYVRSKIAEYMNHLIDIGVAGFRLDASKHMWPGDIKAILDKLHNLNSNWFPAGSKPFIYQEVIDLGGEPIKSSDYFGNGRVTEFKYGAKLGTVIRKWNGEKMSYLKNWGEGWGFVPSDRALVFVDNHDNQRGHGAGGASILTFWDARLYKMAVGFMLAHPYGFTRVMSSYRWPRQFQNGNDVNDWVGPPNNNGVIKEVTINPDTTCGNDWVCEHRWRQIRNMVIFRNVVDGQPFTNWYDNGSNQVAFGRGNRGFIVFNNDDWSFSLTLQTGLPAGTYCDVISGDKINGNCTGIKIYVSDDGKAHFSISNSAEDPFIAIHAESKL
Kind of data set: Inhibitory activity of truncated and fusion peptides. In kind it is biochemical. The conditions noted are these: for Inhibitory Activity: truncated peptides.

Data set [1] has as its target Bovine liver β-galactosidase. In words: Inhibitory specificity: kinetic analysis. It is filed as biochemical. The conditions noted are these: up to 1 μM. On the procedure: (§1) Assays were performed on a Varian Cary 300™ UV/Vis spectrophotometer. The release of 2-chloro-nitrophenol resulting from the amylase catalyzed hydrolysis of 2-chloro-p-nitrophenyl-α-D-maltotrioside was monitored at 400 nm. Reactions were run at 30° C. in 50 mM sodium phosphate, 100 mM sodium chloride (pH 7.0). Reactions were monitored over 5 minutes to measure the initial reaction rate. […] Reactions were run with a final [CNPG3]=5 mM. […] Up to 5 different enzyme concentrations were used, ranging from 1 nM to 10 nM. v/vo was plotted against [I] for each enzyme concentration to form a series of dose response curves. […] Kiapp was then used to calculate Ki. […] Details of this process can be found in the work done by Tarling et al. (33). After kinetic analysis with HPA, nine additional enzymes were tested against helianthamide. Concentrations of up to 1 μM of Helianthamide were used to assess for inhibition.
(§2) Inhibition of nine other glycosidases was explored (TABLE 4).

In another data set the target is Almond β-glucosidase. In words: Inhibitory specificity: kinetic analysis. It is filed as biochemical. To be noted: up to 1 μM. How it is done:
as §1, §2

In data set [2] the target is Roseburia inulinivorans α-amylase A. In words: Inhibitory specificity: kinetic analysis. In kind it is biochemical. To be noted: up to 1 μM. How it is done: as §1, §2
Data set [3] addresses Butyrivibrio fibrisolvens α-amylase B. In words: Inhibitory specificity: kinetic analysis. It is filed as biochemical. To be noted: up to 1 μM. How it is done: as §1, §2
A further data set has as its target T2, Jack bean α-mannosidase (Canavalia ensiformis, UniProt C0HJB3).
T2 construct: Jack bean α-mannosidase; from tissue; host or cells: jack bean
T2 sequence (C0HJB3 1-981): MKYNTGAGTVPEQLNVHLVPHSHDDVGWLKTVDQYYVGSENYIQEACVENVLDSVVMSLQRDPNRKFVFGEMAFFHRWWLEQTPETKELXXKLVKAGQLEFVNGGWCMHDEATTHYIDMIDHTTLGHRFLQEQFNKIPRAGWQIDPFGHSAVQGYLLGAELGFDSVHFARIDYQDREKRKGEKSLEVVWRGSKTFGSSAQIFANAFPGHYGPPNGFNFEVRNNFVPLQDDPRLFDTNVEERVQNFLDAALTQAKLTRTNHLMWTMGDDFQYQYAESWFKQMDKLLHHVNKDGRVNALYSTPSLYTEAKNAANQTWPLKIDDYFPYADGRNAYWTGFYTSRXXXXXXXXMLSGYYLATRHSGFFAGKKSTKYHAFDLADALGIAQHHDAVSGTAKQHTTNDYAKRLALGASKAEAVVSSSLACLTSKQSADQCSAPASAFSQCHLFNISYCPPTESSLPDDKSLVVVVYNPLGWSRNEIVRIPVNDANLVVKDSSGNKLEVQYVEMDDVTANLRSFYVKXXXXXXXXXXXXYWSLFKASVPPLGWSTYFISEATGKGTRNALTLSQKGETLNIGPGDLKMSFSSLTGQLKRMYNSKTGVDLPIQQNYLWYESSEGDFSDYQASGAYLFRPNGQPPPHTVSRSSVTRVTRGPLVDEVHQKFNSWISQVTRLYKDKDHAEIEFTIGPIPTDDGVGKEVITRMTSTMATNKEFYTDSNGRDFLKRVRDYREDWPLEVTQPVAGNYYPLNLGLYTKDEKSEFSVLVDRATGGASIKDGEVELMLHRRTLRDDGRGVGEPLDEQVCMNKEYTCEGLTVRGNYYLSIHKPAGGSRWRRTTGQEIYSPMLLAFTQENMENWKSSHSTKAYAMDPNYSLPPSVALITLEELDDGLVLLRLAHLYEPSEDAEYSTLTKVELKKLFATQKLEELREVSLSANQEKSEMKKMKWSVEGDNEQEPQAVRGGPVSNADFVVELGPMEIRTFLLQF
Kind of data set: Inhibitory specificity: kinetic analysis. It is filed as biochemical. The conditions noted are these: up to 1 μM. How it is done:
as §1, §2

Data set [4] deals with Bacillus licheniformis α-amylase (Bacillus licheniformis, UniProt P06278). Kind of data set: Inhibitory specificity: kinetic analysis. In kind it is biochemical. The conditions noted are these: up to 1 μM. On the procedure:
as §1, §2

For data set [5], the target named is T3, Green coffee bean α-galactosidase (Coffea arabica, UniProt Q42656).
T3 construct: Green coffee bean α-galactosidase; from tissue; host or cells: green coffee beans
T3 sequence (Q42656 16-378): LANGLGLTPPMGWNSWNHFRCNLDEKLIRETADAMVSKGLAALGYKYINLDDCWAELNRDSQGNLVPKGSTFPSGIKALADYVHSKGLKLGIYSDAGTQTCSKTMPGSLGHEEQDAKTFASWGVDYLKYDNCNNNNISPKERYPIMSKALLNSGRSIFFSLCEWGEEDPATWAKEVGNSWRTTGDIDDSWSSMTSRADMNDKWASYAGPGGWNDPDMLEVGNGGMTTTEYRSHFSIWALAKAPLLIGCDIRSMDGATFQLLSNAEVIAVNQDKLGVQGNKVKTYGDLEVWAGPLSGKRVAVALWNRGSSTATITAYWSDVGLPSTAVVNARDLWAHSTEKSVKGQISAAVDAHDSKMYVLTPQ
In words: Inhibitory specificity: kinetic analysis. The conditions noted are these: up to 1 μM. It is filed as biochemical. How it is done: as §1, §2

In data set [6] the target is Human maltase-glucoamylase (Homo sapiens, UniProt O43451). Kind of data set: Inhibitory specificity: kinetic analysis. In kind it is biochemical. The conditions noted are these: up to 1 μM. On the procedure: as §1, §2
Chain of Human maltase-glucoamylase (O43451 whole entry): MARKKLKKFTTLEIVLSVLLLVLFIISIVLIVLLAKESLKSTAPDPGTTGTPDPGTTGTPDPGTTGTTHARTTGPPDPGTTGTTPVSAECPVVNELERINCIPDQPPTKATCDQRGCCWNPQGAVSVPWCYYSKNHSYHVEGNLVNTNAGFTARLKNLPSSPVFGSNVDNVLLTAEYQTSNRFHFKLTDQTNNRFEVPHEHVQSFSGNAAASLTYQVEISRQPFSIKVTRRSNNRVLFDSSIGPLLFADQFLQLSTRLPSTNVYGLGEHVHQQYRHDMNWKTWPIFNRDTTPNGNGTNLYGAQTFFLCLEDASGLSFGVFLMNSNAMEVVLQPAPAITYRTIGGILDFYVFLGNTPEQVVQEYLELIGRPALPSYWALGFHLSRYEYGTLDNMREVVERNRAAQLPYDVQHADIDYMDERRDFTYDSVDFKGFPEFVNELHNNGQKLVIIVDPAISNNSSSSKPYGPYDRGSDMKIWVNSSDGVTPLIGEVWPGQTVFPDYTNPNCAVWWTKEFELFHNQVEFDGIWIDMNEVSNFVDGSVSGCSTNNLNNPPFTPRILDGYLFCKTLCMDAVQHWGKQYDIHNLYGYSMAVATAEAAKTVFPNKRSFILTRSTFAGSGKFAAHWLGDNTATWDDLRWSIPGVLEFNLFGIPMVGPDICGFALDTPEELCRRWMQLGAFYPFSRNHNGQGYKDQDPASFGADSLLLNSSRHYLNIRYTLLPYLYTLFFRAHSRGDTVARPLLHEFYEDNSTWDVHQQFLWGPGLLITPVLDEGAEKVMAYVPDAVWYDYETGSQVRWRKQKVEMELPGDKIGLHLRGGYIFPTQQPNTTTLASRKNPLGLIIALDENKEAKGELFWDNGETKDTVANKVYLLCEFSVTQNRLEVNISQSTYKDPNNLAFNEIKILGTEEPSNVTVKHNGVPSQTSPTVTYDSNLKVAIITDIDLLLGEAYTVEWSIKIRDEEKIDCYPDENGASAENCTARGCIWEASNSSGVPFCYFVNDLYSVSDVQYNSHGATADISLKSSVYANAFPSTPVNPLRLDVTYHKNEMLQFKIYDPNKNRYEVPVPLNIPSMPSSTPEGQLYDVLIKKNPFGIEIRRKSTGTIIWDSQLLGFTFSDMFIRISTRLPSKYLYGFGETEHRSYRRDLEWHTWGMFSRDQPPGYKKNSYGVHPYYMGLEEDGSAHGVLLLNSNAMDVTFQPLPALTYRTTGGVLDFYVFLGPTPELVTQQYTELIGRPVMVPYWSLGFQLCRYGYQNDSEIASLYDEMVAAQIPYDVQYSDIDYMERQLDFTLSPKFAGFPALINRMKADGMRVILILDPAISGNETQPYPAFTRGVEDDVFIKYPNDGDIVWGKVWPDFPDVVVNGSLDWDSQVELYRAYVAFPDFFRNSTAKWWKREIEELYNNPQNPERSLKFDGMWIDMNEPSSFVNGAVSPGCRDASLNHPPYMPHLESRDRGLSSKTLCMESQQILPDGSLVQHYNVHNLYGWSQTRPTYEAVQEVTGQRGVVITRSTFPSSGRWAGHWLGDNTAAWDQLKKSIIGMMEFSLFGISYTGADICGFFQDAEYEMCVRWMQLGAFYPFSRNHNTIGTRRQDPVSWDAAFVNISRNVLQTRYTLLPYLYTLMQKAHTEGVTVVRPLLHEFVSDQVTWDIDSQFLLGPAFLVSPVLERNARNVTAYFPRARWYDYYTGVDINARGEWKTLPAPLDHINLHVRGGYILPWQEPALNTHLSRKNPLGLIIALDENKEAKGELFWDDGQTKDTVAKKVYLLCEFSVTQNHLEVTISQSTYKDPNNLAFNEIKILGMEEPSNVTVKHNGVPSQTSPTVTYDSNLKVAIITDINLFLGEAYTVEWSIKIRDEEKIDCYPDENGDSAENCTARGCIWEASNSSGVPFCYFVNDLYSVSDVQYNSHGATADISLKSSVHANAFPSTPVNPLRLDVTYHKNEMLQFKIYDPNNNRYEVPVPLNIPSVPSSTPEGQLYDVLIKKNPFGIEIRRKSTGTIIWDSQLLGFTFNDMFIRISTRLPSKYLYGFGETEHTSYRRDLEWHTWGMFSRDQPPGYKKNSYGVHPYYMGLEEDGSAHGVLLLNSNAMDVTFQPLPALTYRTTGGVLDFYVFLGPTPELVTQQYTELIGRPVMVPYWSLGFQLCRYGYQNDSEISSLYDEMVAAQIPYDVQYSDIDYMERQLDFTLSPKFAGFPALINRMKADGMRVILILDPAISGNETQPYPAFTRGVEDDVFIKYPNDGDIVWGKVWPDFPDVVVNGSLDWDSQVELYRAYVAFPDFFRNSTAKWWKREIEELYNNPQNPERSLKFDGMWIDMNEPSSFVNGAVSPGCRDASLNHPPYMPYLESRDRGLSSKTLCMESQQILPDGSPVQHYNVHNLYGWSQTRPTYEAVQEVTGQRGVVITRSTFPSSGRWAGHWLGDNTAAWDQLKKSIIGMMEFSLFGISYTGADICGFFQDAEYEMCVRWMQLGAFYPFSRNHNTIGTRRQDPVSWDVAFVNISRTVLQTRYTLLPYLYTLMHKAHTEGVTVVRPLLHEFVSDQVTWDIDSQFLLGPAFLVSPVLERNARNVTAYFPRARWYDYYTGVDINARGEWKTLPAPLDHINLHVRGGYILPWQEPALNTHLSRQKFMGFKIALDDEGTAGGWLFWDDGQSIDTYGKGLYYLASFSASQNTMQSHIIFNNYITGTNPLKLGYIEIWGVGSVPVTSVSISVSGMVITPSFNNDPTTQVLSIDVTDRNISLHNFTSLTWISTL
Data set [7] deals with Brewer's yeast α-glucosidase. In words: Inhibitory specificity: kinetic analysis. In kind it is biochemical. The conditions noted are these: up to 1 μM. How it is done:
as §1, §2

Data set [8] relates to trypsin, chymotrypsin, proteinase K, and Lys-C.
Data set [9] concerns the target T4, human pancreatic α-amylase (HPA) (Homo sapiens, UniProt P04746).
T4 construct: made in house; host or cells: Pichia pastoris
T4 sequence (P04746 16-511): T1 sequence (P04746 16-511)
In words: Kinetic analysis of HPA inhibition (CNP-G3 hydrolysis, Morrison / Michaelis-Menten). In kind it is biochemical. To be noted: for Ki / inhibition constant estimated in preliminary tests: preliminary inhibitory studies with remaining material. On the procedure:
A detailed protocol of this expression can be found in the work done by Rydberg et al. (39) Expression was carried out in Pichia pastoris. Colonies were grown in 600 mL BMGY media at 30° C. 200 RPM. 20 mL of the overnight culture was added to 600 mL BMGY. After 16 hours the cells were transferred to 300 mL BMMY. After one day 2 mL of 50% methanol was added. The culture was left overnight. The culture supernatant was collected and purified via Phenyl Sepharose™ and Hitrap Q™ columns. Deglycosylation was performed with EndoF™.
Reactions were run with a final [CNPG3]=5 mM. […] Kiapp was then used to calculate Ki.
Given the low-nM estimate of Ki for the natural extract, kinetic analysis could not be pursued through standard Michaelis-Menten kinetics (22). In this study, inhibition constants below 50 nM were determined using the Morrison method: inhibition dose response curves at [S]=KM were constructed for varying enzyme concentrations (23, 24). The resulting data (FIG. 2A) was fit to the Morrison equation 1 to determine Ki,app, which could be converted to Ki through equation 2, which is the relationship between these values for competitive inhibition.

For data set [10] the following is noted: 11M HCl at 37° C. for four days, HPLC.
Protocol: The sample was diluted and neutralized before desalting by C18 reverse phase chromatography. The peptide mixture was injected into an Agilent™ 6460 QQQ LC/MS mass spectrometer. Elution and MS/MS analysis was carried out over a 40-minute period. A script was written to predict all possible fragments for the helianthamide sequence in the event of random hydrolysis and was used to analyze the resulting MS and MS/MS peaks.
Intact peptide was incubated in 11M HCl at 37° C. for four days.
Data set [11] addresses T4, human pancreatic α-amylase (HPA). The conditions noted are these: from parallel screen; read-out: Ki against HPA; cited from earlier work.

Entries after “also recorded” stand apart in the source; their conditions may differ. Bridges are numbered along the chain shown (N, C = ends). Bounds are passed on as bounds.

As usually defined, the Ki is the equilibrium dissociation constant of an inhibitor or competing ligand from its target.

Chain of Bacillus licheniformis α-amylase (P06278 30-512): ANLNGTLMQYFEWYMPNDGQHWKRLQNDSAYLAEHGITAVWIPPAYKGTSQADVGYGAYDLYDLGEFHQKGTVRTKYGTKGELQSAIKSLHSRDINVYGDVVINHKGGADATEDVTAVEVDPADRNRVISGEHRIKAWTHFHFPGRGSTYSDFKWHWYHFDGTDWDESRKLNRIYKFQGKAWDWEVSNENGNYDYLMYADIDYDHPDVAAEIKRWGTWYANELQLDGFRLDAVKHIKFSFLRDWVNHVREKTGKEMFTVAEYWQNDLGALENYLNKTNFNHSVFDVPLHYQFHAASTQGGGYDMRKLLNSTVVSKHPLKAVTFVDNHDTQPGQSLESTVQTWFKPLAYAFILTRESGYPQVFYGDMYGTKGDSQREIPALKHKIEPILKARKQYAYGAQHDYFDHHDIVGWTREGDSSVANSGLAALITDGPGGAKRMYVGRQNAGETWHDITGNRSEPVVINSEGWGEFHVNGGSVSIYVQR

For “Ac-CYIYHGVSGIC-NH2 (disulfide 1-11 (inferred); listed as Stichodactyla helianthus) [truncated peptide]”, the “Inhibitory Activity” value with mammalian alpha-amylase was determined as 30 µM.
As for “Ac-YIYH-NH2 (listed as Stichodactyla helianthus) [truncated peptide, Ac represents the acetyl functional group]”, in the data set with mammalian alpha-amylase, the “mammalian alpha-amylase inhibitory activity (in words)” value is given as “did not have detectable” and the “Inhibitory Activity” value was “no inhibition detected”.
Take “Ac-YIYHGVSGI-NH2 (listed as Stichodactyla helianthus) [truncated peptide]”: the “Inhibitory Activity” value with mammalian alpha-amylase was determined as 25 µM.
For “ESGNSCYIYHGVSGICKASCAEDEKAMAGMGVCEGHLCCYKTPW (listed as Stichodactyla helianthus) [helianthamide]”, the Ki (in data set [1]; at Almond β-glucosidase; in [2]; in data set [3]; with Jack bean α-mannosidase; in data set [4]) was above 1000 nM in each case. Besides, the Ki in data set [5], in [6] and in data set [7] was above 1000 nM each time. For the same substance, the resistance to proteolysis result in [8] was “resistant to proteolysis”. In addition, the “Ki / inhibition constant estimated in preliminary tests” value in [9] was “low-nM”; in data set [9] (listed as Helianthamide) it was “low nanomolar; also recorded: low nano-molar”. In data set [9] (preliminary tests, natural material), the “mode of HPA inhibition” value is recorded as “reversible competitive inhibition”. In data set [10], the “intact peptide remaining after acid incubation” value is “a large proportion of intact peptide remained”.
Consider Montbretin A, for which the Ki in data set [11] was 8 nM.

These data come from patent US10583167B2, “Mammalian glucosidase inhibitors, methods for their use and pharmaceutical compositions thereof” (THE UNIVERSITY OF BRITISH COLUMBIA, priority 2015, dated 2020).
